Article PMC5735978

Key:
[1] = target: LRRK2 (UniProt Q5S007); experiment: overlay of His-14-3-3γ on blotted Flag-LRRK2; settings: reference: 14-3-3γ wild type; sites S59
[2] = target: 6xHis-14-3-3γ wild-type (human) (UniProt P61981); experiment: native gel or EMSA; blue native gel (4-16%) of His-14-3-3γ after incubation with Flag-PAK6 S531N (4:1 molar ratio) under kinase assay conditions with or without 1 mM ATP; Coomassie staining
[3] = target: 14-3-3γ (UniProt P61981); experiment: overlay of His-14-3-3γ on blotted Flag-PAK6; settings: reference: PAK6 wild type; sites S113

14-3-3γ (from UniProt P61981) 14-3-3γ S59D
other: percent reduction versus wild type [1]: 80%

6xHis-14-3-3γ wild-type (from UniProt P61981 1-247) (natural protein)
stoichiometry N [2]: 2

PAK6 (from UniProt Q9NQU5) PAK6 S113A
binding against the reference [3]: weaker
